Experimental data published in the supplement of paper PMC12042874.
± gives the uncertainty stated by the source.

Test: amyloid nucleation score (Sup35N fusion, yeast selection) (log enrichment); library NNK3; higher = more nucleation; inactive = no reads after selection
How it was run: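 Random libraries were run with three technical output replicates. In each, psi-negative yeast expressing Sup35N fused to peptides of 20 random codons were induced 24 hours with 100 μM copper sulfate and grown 7 days at 30°C on medium lacking adenine and uracil, and input and output plasmid inserts were Illumina-sequenced. The nucleation score is the DiMSum log enrichment of output over input reads, centred on the mode score of non-aggregating sequences, and sequences under 100 input reads were excluded.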

| Substance | amyloid nucleation score |
| --- | --- |
| VWLRGDVLGMTLHGCSIVTR | inactive |
| VWNFPNILCFGWIFRA | 1.64 ± 0.093 |
| VWVFYWDKLRKF | inactive |
| VWVIVKTNLLLVAGQGGAFG | 0.693 ± 0.15 |
| VWVLGQLWFF | inactive |
| VWVLSA | inactive |
| VWVTFMRAVMTLELCLERMR | inactive |
| VWVTVRCLNYRPSYMPYRTR | 0.651 ± 0.32 |
| VYAEKMMVSSHLCGLRRRFK | inactive |
| VYCLRWKLYMLNEVS | inactive |
| VYLWKYRPQYPRVA | inactive |
| VYMLYQFSCPGVDNWVCTES | inactive |
| VYNLVDIESEPKVVFNGLFL | inactive |
| VYNRVHNCGMKVANYDTRDK | inactive |
| VYQSTSKF | inactive |
| VYRWVC | inactive |
| VYSFTAKHRYSWFVCNDGVK | inactive |
| VYSGESNQIYIMNWPVTSKQ | 0.062 ± 0.59 |
| VYSTSDAEVIVSVSRRGDFA | inactive |
| VYVAYALFRRD | -0.333 ± 0.9 |
| VYWHVWVALSCFMPANIGVV | inactive |
| VYWTEWTCMDIDGIQFLVNV | inactive |
| WAFHFGCCNDGMVR | inactive |

| Substance | amyloid nucleation score |
| --- | --- |
| WAIWAYRTLVESMWGTKIGK | inactive |
| WANMQETFWRMWTRPVLTCG | inactive |
| WAPACYTDSCVMIGGEPYRT | inactive |
| WAQLRSTWTSSKAYWLTA | inactive |
| WCFCGWMYIISFLSYKKHIM | inactive |
| WCQCRKLFWVYAHGEHFSSC | 1.09 ± 0.12 |
| WCSSWSRILTQVACVRHRKW | 0.926 ± 0.14 |
| WDAPMSNVDRL | inactive |
| WDCVNSAHWVLDMFSNSYVS | inactive |
| WDHTA | inactive |
| WDNWSTIRWTVYALSRKSAR | inactive |
| WEGYT | inactive |
| WENCKFWRTLPISVHEGHLD | inactive |
| WFFILD | inactive |
| WFMRFTLSLVTGLVNGSAWS | inactive |
| WFVSSWKNSHLKCGL | inactive |
| WFYMSRDGYEAVKRLTKLGK | inactive |
| WFYVDLFCGWTRDVNAASCL | inactive |
| WGFVW | inactive |
| WGLGAINIDMRRRLDPRCKR | 0.312 ± 0.32 |
| WGRGNAAMYGVFRSGNLLVI | inactive |
| WGSRHKIVCELGLPFYVLEG | inactive |
| WHKKLGYTSFNRKLGFMASG | 0.101 ± 0.45 |

| Substance | amyloid nucleation score |
| --- | --- |
| WHMWVLKYIFAGLVHSSPWG | inactive |
| WIFRFAYVVHDAWFSENRYP | inactive |
| WIKVDTPFEGFVRYAIDSGV | inactive |
| WILFCKNGAVTNLLVWECLC | inactive |
| WIVVENW | inactive |
| WKEVGHGRSASPSALK | inactive |
| WKRKRRLRELGITKVILRVL | inactive |
| WLCCNKTETPQSTRRWQEDD | inactive |
| WLCPYARFIRNRSLLFCMFW | inactive |
| WLDRVY | inactive |
| WLFRRVGMVTHAWMYWFKSR | inactive |
| WLFYLT | inactive |
| WLGPYVLHSSAGSGMVDNGT | inactive |
| WLHRTKLWPYFYVKLFPRDK | inactive |
| WLIKYPGYW | inactive |
| WLSFFRWR | inactive |
| WLSYLLNG | 1.91 ± 0.096 |
| WLVRMN | inactive |
| WLVYVVLRM | inactive |
| WLWDVDDYGNPLWVRHASVA | inactive |
| WMDRLFVSVTAVWRQPDVGI | 1.42 ± 0.11 |
| WMFLDTSGDIMPRGLTDYLE | inactive |
| WMRVSCDTRGYSSFQAY | -0.538 ± 0.75 |

| Substance | amyloid nucleation score |
| --- | --- |
| WMYHMHENYN | 1.18 ± 0.1 |
| WNCGSPPR | inactive |
| WNESAGGFRYFPEDAKCDRA | inactive |
| WNFNRVYHFLTIEMF | inactive |
| WNHLDERANELCCN | inactive |
| WNKGPQTQ | inactive |
| WNLLWLLFFLCLCHCGIMWK | inactive |
| WNMIFTQPNNQPIVVRDFVD | inactive |
| WNVLPATMMRFIRDMTGH | inactive |
| WPANGMSRLVNRL | inactive |
| WPLYGLDWNPLGFNLRWYKF | inactive |
| WPMMATLQYHDLLLAFLFRK | inactive |
| WQICSGA | inactive |
| WQLEKIDDDYLRVTVDEPSE | inactive |
| WQTMPGVRDGCAECEIYWG | inactive |
| WQTTDRLFSVKKSALLVGFC | inactive |
| WQVTCDFTFNLRFLFGFGDC | 0.617 ± 0.2 |
| WREAICLLICTIITVPWVNW | inactive |
| WRFQQQAFRYNWPWVILLLV | inactive |
| WRSASGVD | inactive |
| WRVHHFGWAGEY | inactive |
| WRYWDSFFL | inactive |
| WSCNISYTLLSMGRRLYSRR | inactive |

| Substance | amyloid nucleation score |
| --- | --- |
| WSDHMMRALERLPECINKLL | inactive |
| WSGCMWSCARGYGSFPSGPL | inactive |
| WSIRYVLICIGVSKIVCRPL | inactive |
| WSISSECGERVFRVRTCH | -0.548 ± 1 |
| WSKHVCLFENSKSPHFSEDS | inactive |
| WSLCGDVRTQHINHVSVQVS | inactive |
| WSLNWLMTFGLIYRQFSHLY | inactive |
| WSPKTLLM | inactive |
| WSRSSV | inactive |
| WSSFPFCSRVYVQTWIDLTN | 1.52 ± 0.14 |
| WSVITT | inactive |
| WSYHATTPHLRRYRLERSSN | inactive |
| WTIAVMVSVGKYMTGTAT | inactive |
| WTRMCSSVRTVR | inactive |
| WTVGCREWLSLCCSAKDTDA | inactive |
| WVCMVNSRRSCIRNS | 0.381 ± 0.75 |
| WVGLVPYPMVAQEVFNHQD | inactive |
| WVLLKSWQNCLLGELVSEVQ | inactive |
| WVPAGCKSVMVGGAG | inactive |
| WVQPSYRPSCVLYRSNNNNR | inactive |
| WVTIESNLCIVSFNRSRSQK | 2.66 ± 0.075 |
| WWHVIMYTGHKCNLSCDSVG | inactive |
| WWRDGDIRCKTSLNLGKRSF | inactive |

| Substance | amyloid nucleation score |
| --- | --- |
| WYALYAKYASTPGFCACLRG | inactive |
| WYCVAEYGHFKCPSRKYVFG | inactive |
| WYFPTQ | inactive |
| WYGVVDVDW | inactive |
| WYSNLMCTWISDDKTWQRIR | inactive |
| WYTVRSKYANHVNDRHSRRW | -0.507 ± 0.98 |
| WYWSSNPSGTDVGIDGVRIS | inactive |
| YAETPRFIRFY | -0.137 ± 0.78 |
| YAGQDEFFMVTVYIKPNDLC | 1.85 ± 0.085 |
| YAPFWS | inactive |
| YASSCDVKLMQSSPLAYEVD | inactive |
| YATACGMILQKVVGKLTLLA | -0.395 ± 0.46 |
| YCCIFRRFNGKNFFSCRG | inactive |
| YCDLY | inactive |
| YCGLVHVSHLGVGREIGRRV | inactive |
| YCGYNR | inactive |
| YCKSPVSANMHMNNGNTGSC | inactive |
| YCLRSSTGSEVRQWDDDSFK | inactive |
| YCMYMCFSVMAGGGIVTMLW | inactive |
| YCSIGLLCTSCIASVGIWVI | inactive |
| YCSVFRES | 0.014 ± 0.63 |
| YCTFDVCGFSSASSEGFNTA | 0.465 ± 0.32 |
| YCTGLIFPAFSNLEDSTLLF | inactive |

| Substance | amyloid nucleation score |
| --- | --- |
| YCTRNTCEIVGCILCGGLLS | 2.45 ± 0.086 |
| YCVLLRCNFFRSL | inactive |
| YCVQYVNDRQL | 1.85 ± 0.082 |
| YDDVVVI | inactive |
| YDGQMVRVRLYPSWEQVYCV | -1.1 ± 1.4 |
| YDKQENVEGLFALF | inactive |
| YDMVLRSHATVAYSHYGFDM | inactive |
| YDRNLNMCLQEMHRNIR | inactive |
| YDTAVYIIELGCNDNKSWVR | inactive |
| YDWSVPAKSS | inactive |
| YEYWYFCRDDNNFVYLIR | inactive |
| YFFCCLR | 2.44 ± 0.059 |
| YFFFLRICWMDSSLVFGLLS | inactive |
| YFFSDNRNFRVNPVSNR | inactive |
| YFGFIVKISYTVLFGLGSKC | inactive |
| YFINKMILIDPL | inactive |
| YFMCREMALILEHLCEAGWC | inactive |
| YFMVINR | 1.98 ± 0.071 |
| YFNLPISW | -0.316 ± 0.7 |
| YFRGPF | inactive |
| YFSFFQRVLWYRCAASFNLQ | -0.106 ± 0.63 |
| YFSKVIVDLKNSCIL | inactive |
